# From the RNAGym collection of RNA variant scans (doi:10.7554/elife.90254)
# B1: OR4K15 (parent)
# chain: GUUAACGGUCAUAGGCCAUGGAAACUAGGAGCACCAUUUCGCUGCCAGUGAAGAAAUGAACAAAGAAAAUCUGGGCCAGGCAGGCAUCAAAAGAAAUAGUCUUGCGCUCAACCAGAAAGUCUGUAAUCAUUUUAAGGGUA
# Variants of: B1
# Assay: self-cleavage, relative activity (ratio to wild type); higher = more cleavage; in vitro, sequencing; the parent is a self-cleaving ribozyme
row,Variant,self-cleavage
1,A5C U102C,0.96
2,A4G A23G,1.09
3,A4G G20A,0.82
4,U2A U87A,1.32
5,A4G U37C,0.91
6,A4G A116G,0.94
7,A4G A116U,0.26
8,A4U A114U,0.22
9,A4G C77U,1.45
10,U2A U3A,1.16
11,U2G A33G,0.43
12,U2C A92G,0.98
13,U2C A64U,1.3
14,U3A G53A,1.01
15,A4G C105U,0.14
16,U3G A52G,0.67
17,U3C A18U,0.78
18,U3C A18G,1.02
19,U2C A89G,0.63
20,U2C A89U,1.7
21,A4G A78G,0.59
22,U3C A118G,0.54
23,U3C A118U,1.94
24,U3C A5G,1

row,Variant,self-cleavage
1,U3C U9A,0.85
2,U3C U9C,1.36
3,U2G A51G,0.95
4,A4G U131C,1.45
5,U2C A33C,0.88
6,U3C G84C,0.37
7,A4G A66G,0.53
8,A4G U133C,1.3
9,A4G U133A,1.25
10,U2C U3C,0.98
11,A4U A59U,1.95
12,U3C A66G,1.45
13,A4G U132C,0.72
14,A4G U132A,0.44
15,U2G A116G,0.37
16,U2A A135U,0.96
17,U2C C109U,0.29
18,U2C U103C,0.99
19,U2C A140G,0.72
20,U2G U39C,2.03
21,A4G A62G,1.09
22,A4C U43A,0.94
23,U2C G75U,0.27
24,U2C A98G,0.57

row,Variant,self-cleavage
1,A5C A33U,2.21
2,U3G A140G,1.39
3,U2A C61U,0.71
4,A5C A126G,1.54
5,U3C C101U,0.51
6,U3G A110U,1.67
7,A4G A86U,0.95
8,A4G A86G,0.72
9,A4G A11G,0.86
10,U2C A67G,1.13
11,U2C A67U,0.85
12,U3C A51C,0.84
13,U3C A51U,1.27
14,U2C U132C,1.4
15,U3C C77U,0.69
16,U2C G28U,2.17
17,U3A A66G,1.1
18,U2G A94G,0.48
19,U2C A5G,0.24
20,U3A A64G,1.11
21,U3C G75A,0.11
22,U3C G75C,0.08
23,U2G A135G,0.69
24,U2C A13G,0.99

row,Variant,self-cleavage
1,U2G U3C,1.11
2,U3A U100C,1.63
3,U2A U43G,1.11
4,U2C A110G,0.11
5,A4C C81U,0.79
6,U3A A111G,0.08
7,U3C U12C,1.24
8,A4G A117U,0.81
9,A4G A117G,1.18
10,U3C C32U,1.2
11,A4G A24G,1.62
12,U2C G84A,1.46
13,U3C A24G,0.9
14,U3C A82U,0.21
15,U2G U9C,1.05
16,U2A G104A,0.16
17,U3C A60G,0.93
18,A4G A54G,0.55
19,U3A A116G,0.32
20,U2G A23G,0.75
21,A5C U57C,0.75
22,A4G A47C,0.42
23,A4G A110U,1.15
24,U2C A95G,1.53

row,Variant,self-cleavage
1,U2C A95U,0.99
2,U2C U70G,1.51
3,U2C U139A,0.92
4,U2C A86G,0.95
5,U2C A86U,2.13
6,A4U A140U,1.5
7,U2G A118G,0.66
8,U3C A63U,1.02
9,U2A U132C,1.21
10,A4G A91U,1.36
11,A4G A91G,1.13
12,U3C C105U,0.06
13,U2C A135U,0.5
14,U2C C46U,0.54
15,U3C A30U,1.37
16,U2G A11G,1.05
17,A5C U38C,1.28
18,A4G A68G,0.87
19,U2C U87A,0.9
20,A4C A24G,0.75
21,A4C A24U,0.5
22,A4G C113U,0.19
23,U2C C16U,0.69
24,U2C U100A,0.48

row,Variant,self-cleavage
1,U3C U72A,0.17
2,U2C C61U,1.77
3,U3C U37C,1.05
4,U3A A5U,0.64
5,U3C A86C,0.37
6,U3C A86G,1.05
7,U2C A24G,1.09
8,U2G U19A,0.72
9,U2C U57C,0.75
10,U2C U57G,0.66
11,U2C A78U,0.09
12,U2C A78C,0.4
13,U3A U139A,1.89
14,U2C C25U,1.85
15,A4G G83A,1.44
16,U2C A55U,1.46
17,U2C A55G,1.15
18,U3C A117G,1.69
19,U2C A60U,1.67
20,U2C U133C,0.71
21,A4U U120C,0.54
22,U2C A4G,0.87
23,U2G U132C,1.4
24,U2C A22G,1.11

row,Variant,self-cleavage
1,U2C A22U,1.51
2,A4G A125G,0.55
3,U2C A23G,1.01
4,U2C A111U,0.27
5,U3C A23C,1.42
6,U2C A117G,1.33
7,U3C U120A,1.72
8,U3C U120C,1.42
9,A4G U49A,0.8
10,A4G U49C,0.82
11,A4G G50U,1.39
12,U2C A82G,0.55
13,U2C A82U,0.17
14,U2G A111G,0
15,U2G A111U,0.17
16,U2C A30G,1.22
17,A5C A66U,0.83
18,U2G U38A,1.08
19,U2G U102C,0.94
20,A4G U9C,1.33
21,U2C U120C,0.43
22,U2C A126U,0.77
23,A4G U70C,0.79
